Results as given in the Immune Epitope Database (IEDB).

Tests used:
HLA-A*01:01 = test: IEDB peptide-MHC binding, purified MHC/direct/fluorescence; filed as Kd, often an IC50 or EC50 that approximates it; ≥ and ≤ were set here for values at or beyond the usual limits of such assays
HLA-A*02:01 [1] = test: as above
HLA-A*03:01 [2] = test: as above
HLA-A*11:01 = test: as above
HLA-A*24:03 = test: as above
HLA-A*26:01 = test: as above
HLA-A*31:01 = test: as above
HLA-A*69:01 = test: as above
HLA-B*07:02 = test: as above
HLA-B*08:01 = test: as above
HLA-B*15:01 = test: as above
HLA-B*27:05 = test: as above
HLA-B*40:01 = test: as above
HLA-B*44:02 = test: as above
HLA-B*58:01 = test: as above
HLA-B*48:01 = test: as above
HLA-B*08:02 = test: as above
HLA-B*18:01 = test: as above
HLA-B*46:01 [3] = test: as above
HLA-B*57:01 = test: as above
HLA-A*03:01 [4] = test: IEDB peptide-MHC binding, purified MHC/competitive/fluorescence; filed as Kd, often an IC50 or EC50 that approximates it; ≥ and ≤ were set here for values at or beyond the usual limits of such assays
HLA-A*24:02 = test: IEDB peptide-MHC binding, purified MHC/competitive/fluorescence; ≥ and ≤ were set here for values at or beyond the usual limits of such assays
HLA-A*02:01 [5] = test: as above; conditions: source organism: Sudan ebolavirus
HLA-B*46:01 [6] = test: IEDB peptide-MHC binding, purified MHC/competitive/fluorescence; filed as Kd, often an IC50 or EC50 that approximates it; ≥ and ≤ were set here for values at or beyond the usual limits of such assays; conditions: source organism: Yellow fever virus
[7] = source organism: Giardia intestinalis
[8] = source organism: Giardia lamblia ATCC 50803
[9] = source organism: Mammarenavirus lassaense
[10] = source organism: Vaccinia virus WR
[11] = source organism: Zaire ebolavirus
[12] = source organism: Yersinia pestis
[13] = source organism: Yersinia pestis CA88-4125
[14] = source organism: Influenza A virus (A/tiger/Thailand/CU-T6/04(H5N1))
[15] = source organism: Influenza A virus(A/swine/Shandong/fZC/2003(H9N2))

Work on GPRRAAWRI yielded a Kd (HLA-A*01:01; [7]) of no less than 20 µM, a Kd (HLA-A*02:01 [1]; [7]) of no less than 20 µM and a Kd (HLA-A*03:01 [2]; [7]) of no less than 20 µM. For the same sequence, the Kd (HLA-A*11:01; [7]) was no less than 20 µM, the Kd (HLA-A*24:03; [8]) was no less than 20 µM and the Kd (HLA-A*26:01; [7]) was no less than 20 µM. The Kd (HLA-A*31:01; [7]) was no less than 20 µM, the Kd (HLA-A*69:01; [7]) was no less than 20 µM and the Kd (HLA-B*07:02; [8]) was 0.0617 µM. For the same sequence, the Kd (HLA-B*08:01; [7]) was no less than 20 µM, the Kd (HLA-B*15:01; [7]) was no less than 20 µM and the Kd (HLA-B*27:05; [7]) was no less than 20 µM. The Kd (HLA-B*40:01; [7]) was no less than 20 µM, the Kd (HLA-B*44:02; [7]) was no less than 20 µM and the Kd (HLA-B*58:01; [7]) was no less than 20 µM.

For HQDNLDTVI, the Kd (HLA-B*48:01; source organism: Mycobacterium tuberculosis C) was 9.15 µM.

IASMRRNYF showed a Kd (HLA-B*08:01; source organism: Influenza A virus (A/camel/Mongolia/1982(H1N1))) of 0.401 µM and a Kd (HLA-B*08:02; source organism: Influenza A virus (A/Taiwan/2/2006(H1N1))) of 2.23 µM.

Sequence ILNHKFCNL has a Kd (HLA-A*01:01; [9]) of no less than 20 µM, a Kd (HLA-A*03:01 [2]; [9]) of no less than 20 µM and a Kd (HLA-B*07:02; [9]) of no less than 20 µM. It also gave a Kd (HLA-B*08:01; [9]) of 0.142 µM, a Kd (HLA-B*18:01; [9]) of no less than 20 µM and a Kd (HLA-B*27:05; [9]) of no less than 20 µM. It also gave a Kd (HLA-B*40:01; [9]) of no less than 20 µM, a Kd (HLA-B*44:02; [9]) of no less than 20 µM and a Kd (HLA-B*46:01 [3]; [9]) of no less than 20 µM. The Kd (HLA-B*48:01; [9]) was no less than 20 µM, the Kd (HLA-B*57:01; [9]) was no less than 20 µM and the Kd (HLA-B*58:01; [9]) was no less than 20 µM.

KKKLRPRWL was tested, and the Kd (HLA-B*08:02; source organism: dengue virus type 4) was no less than 20 µM.

Sequence KLSSEQLSH has a Kd (HLA-A*03:01 [4]; [8]) of 0.0594 µM.

In the case of KRSVMLIGI, the IC50 (HLA-A*24:02; [10]) is reported as 9.38 µM.

In the case of KYVDYMSSL, the IC50 (HLA-A*24:02; source organism: West Nile virus) is reported as 0.507 µM.

In the case of LMHNQNALV, the IC50 (HLA-A*02:01 [5]) is reported as 1.16 µM and the IC50 (HLA-A*24:02; source organism: Sudan ebolavirus) is reported as no less than 87 µM.

In the case of MTATLEDDR, the IC50 (HLA-A*24:02; source organism: Variola virus) is reported as 14.6 µM.

MYRHILRSQ was tested, and the IC50 (HLA-A*24:02; [11]) was 56 µM.

QLKSRAAVL gave a Kd (HLA-A*01:01; [12]) of no less than 20 µM, a Kd (HLA-A*03:01 [2]; [12]) of no less than 20 µM and a Kd (HLA-A*11:01; [12]) of no less than 20 µM. The Kd (HLA-A*31:01; [12]) was no less than 20 µM, the Kd (HLA-A*69:01; [12]) was no less than 20 µM and the Kd (HLA-B*08:01; [13]) was 0.034 µM. The Kd (HLA-B*08:02; [13]) was 0.948 µM, the Kd (HLA-B*18:01; [12]) was no less than 20 µM and the Kd (HLA-B*27:05; [12]) was no less than 20 µM. It also gave a Kd (HLA-B*40:01; [12]) of no less than 20 µM, a Kd (HLA-B*44:02; [12]) of no less than 20 µM and a Kd (HLA-B*46:01 [3]; [12]) of no less than 20 µM. It also gave a Kd (HLA-B*57:01; [12]) of no less than 20 µM and a Kd (HLA-B*58:01; [12]) of no less than 20 µM.

QYQQLREAA gave an IC50 (HLA-A*24:02; [11]) of no less than 73.9 µM.

In the case of RIHGLGFCY, the Kd (HLA-A*03:01 [4]; source organism: Shigella boydii CDC 3083-94) is reported as 0.608 µM.

RKKLKPRWL gave a Kd (HLA-B*08:02; source organism: Dengue virus 2 Thailand/16681/84) of no less than 20 µM.

For RMKWMMAMR, the Kd (HLA-A*03:01 [4]; source organism: Influenza A virus (A/chicken/Fujian/25/00(H9N2))) was 0.044 µM.

Work on RTKSISSR yielded a Kd (HLA-A*03:01 [4]; source organism: Influenza A virus (A/swine/Quebec/192/81(H1N1))) of no less than 20 µM.

Sequence RVSSFIRGKK has a Kd (HLA-A*03:01 [4]; source organism: Influenza A virus (A/swine/Italy/2/1979(H1N1))) of 0.0025 µM.

Work on RWLGGILPW yielded an IC50 (HLA-A*24:02; [10]) of 0.0111 µM.

Sequence SGSTSPRML has an IC50 (HLA-A*24:02; [11]) of no less than 188 µM.

In the case of SNSVAQARF, the IC50 (HLA-A*24:02; [11]) is reported as no less than 83.6 µM.

Sequence TYQWIIRNW has a Kd (HLA-A*01:01; [14]) of no less than 20 µM, a Kd (HLA-A*02:01 [1]; [14]) of no less than 20 µM and a Kd (HLA-A*03:01 [2]; [14]) of no less than 20 µM. For the same sequence, the Kd (HLA-A*11:01; [14]) was no less than 20 µM, the Kd (HLA-A*24:03; [14]) was 0.0025 µM and the Kd (HLA-A*26:01; [15]) was no less than 20 µM. It also gave a Kd (HLA-A*31:01; [14]) of no less than 20 µM, a Kd (HLA-A*69:01; [14]) of no less than 20 µM and a Kd (HLA-B*07:02; [14]) of no less than 20 µM. It also gave a Kd (HLA-B*08:01; [14]) of no less than 20 µM, a Kd (HLA-B*08:02; [15]) of no less than 20 µM and a Kd (HLA-B*15:01; [14]) of no less than 20 µM. It also gave a Kd (HLA-B*27:05; [14]) of no less than 20 µM, a Kd (HLA-B*40:01; [14]) of no less than 20 µM and a Kd (HLA-B*44:02; [14]) of no less than 20 µM. For the same sequence, the Kd (HLA-B*46:01 [3]; [14]) was no less than 20 µM and the Kd (HLA-B*58:01; [14]) was no less than 10 µM.

WFYDNDNPY was tested, and the Kd (HLA-B*46:01 [6]) was 1.17 µM.
